Source: patent EP4644549A1, “ANTIMICROBIAL PEPTIDE AND METHOD FOR PRODUCING SAME” (Sumitomo Chemical Company, Limited, priority 2022, dated 2025)
Ends that are not written are not given here.

Experiments:
[1] = test system: Lactobacillus sakei (NBRC15893); assay: Wide pH-range stability test (spot-on-lawn antimicrobial activity after incubation in buffer); type: physicochemical; parameters: key: A: Good activity; B: Slight influence on activity; C: No activity; settings: ten times the lowest concentration of Table 3, A = spot diameter 80% or more of control in water
Protocol: Antimicrobial activity of the antimicrobial peptide was evaluated by a spot-on-lawn method that involved spotting 10 µL of a test liquid 13 on the test bacteria (lawn) (on a soft agar medium 11) (Fig. 1). As the test bacteria, Lactobacillus sakei (NBRC15893) was used. The specific procedure is as follows. Firstly, the test bacteria that were cultured overnight were mixed and diluted with Lactobacilli AOAC agar (soft agar medium 11) in a density of 4×10^7 CFU/mL, and was spread over an MRS plate containing 2% agar (an agar medium 12). Test liquid 13 was spotted thereon, and incubated overnight at 30°C, followed by evaluation of the size of a growth inhibition circle 14 (Fig. 1). It can be determined that the larger the growth inhibition circle, the higher the antimicrobial activity. The fraction with highest antimicrobial activity as determined in the antimicrobial activity test was regarded as a purified active fraction and used in Experiment 4 and Experiment 5 described below. For the polypeptides as set forth in SEQ ID NOs: 1 to 5, 13, and 14 in Table 3, evaluation was carried out to see if they had antimicrobial activity over a wide range of pH. As a Comparative Example, a commercially available nisin A (manufactured by Sigma-Aldrich) was used. Firstly, each peptide was dissolved in the following buffer to prepare a solution of a concentration ten times the lowest concentration specified in Table 3: sodium phosphate buffer (50 mM, pH4), 1x phosphate buffer saline (pH7.4), ammonium chloride-ammonia buffer (50 mM, pH10.0). […] Antimicrobial activity was evaluated based on the size of the spot (the size of the growth inhibition circle). When the size of the spot was equivalent to that of the control (when the diameter of the spot was 80% or more of the control), it was rated as A, and when the size was relatively small but antimicrobial activity was still detected, it was rated as B. When the growth inhibition circle was not observed, it was rated as C. It can be determined that the peptides rated as A or B are stable at the test pHs. […]

Streptococcus uberis = assay: Antimicrobial activity test in liquid culture (growth by OD630); type: cell-based; parameters: key: +: Antimicrobial activity observed; -: No antimicrobial activity observed; settings: Test conc. 25 µM; culturing 24 to 48 hours
Protocol: (§1) As a Comparative Example, a commercially available nisin A (manufactured by Sigma-Aldrich) was used. Firstly, each peptide was dissolved in MRS medium to prepare a solution of a concentration of 20 µM to 1000 µM. From the resultant, 10 µl was taken and mixed with various test bacteria and 90 µl of medium intended for culturing the test bacteria, followed by culturing for 24 hours to 48 hours. After culturing, OD630 was measured to check the number of bacteria. When OD630 increased or turbidity was visually observed as compared to the culture liquid before culturing, it can be determined that the test bacteria had grown. […] In the "SEQ ID NO or substance name of peptide" section in Table 5, each of "SEQ ID NO: 3 & SEQ ID NO: 4" and "SEQ ID NO: 13 & SEQ ID NO: 14" means that a combination of the two types of peptides were used in equimolar amounts. The results in Table 5 indicate that the polypeptides as set forth in SEQ ID NOs: 1 to 5, 13, and 14 were effective against gram-positive bacteria and some of these polypeptides were effective against gram-negative bacteria such as E. coli and fungi such as C. albicans.

Staphylococcus aureus = assay: as above; type: cell-based; parameters: key: +: Antimicrobial activity observed; -: No antimicrobial activity observed; settings: Test conc. 25 µM; culturing 24 to 48 hours
Protocol: as §1

Lactobacillus sakei = assay: as above; type: cell-based; parameters: key: +: Antimicrobial activity observed; -: No antimicrobial activity observed; settings: Test conc. 25 µM; culturing 24 to 48 hours
Protocol: as §1

Escherichia coli = assay: as above; type: cell-based; parameters: key: +: Antimicrobial activity observed; -: No antimicrobial activity observed; settings: Test conc. 25 µM; culturing 24 to 48 hours
Protocol: as §1

Candida albicans = assay: as above; type: cell-based; parameters: key: +: Antimicrobial activity observed; -: No antimicrobial activity observed; settings: Test conc. 25 µM; culturing 24 to 48 hours
Protocol: as §1

[2] = test system: Lactobacillus sakei (NBRC15893); assay: Thermal stability test (spot-on-lawn antimicrobial activity after heat treatment); type: physicochemical; parameters: key: A: Good activity; B: Slight influence on activity; C: No activity; settings: in water, ten times the lowest concentration of Table 3, A = spot diameter 80% or more of control with no heat treatment
Protocol: Antimicrobial activity of the antimicrobial peptide was evaluated by a spot-on-lawn method that involved spotting 10 µL of a test liquid 13 on the test bacteria (lawn) (on a soft agar medium 11) (Fig. 1). As the test bacteria, Lactobacillus sakei (NBRC15893) was used. The specific procedure is as follows. Firstly, the test bacteria that were cultured overnight were mixed and diluted with Lactobacilli AOAC agar (soft agar medium 11) in a density of 4×10^7 CFU/mL, and was spread over an MRS plate containing 2% agar (an agar medium 12). Test liquid 13 was spotted thereon, and incubated overnight at 30°C, followed by evaluation of the size of a growth inhibition circle 14 (Fig. 1). It can be determined that the larger the growth inhibition circle, the higher the antimicrobial activity. The fraction with highest antimicrobial activity as determined in the antimicrobial activity test was regarded as a purified active fraction and used in Experiment 4 and Experiment 5 described below. For the polypeptides as set forth in SEQ ID NOs: 1 to 5, 13, and 14 in Table 3, evaluation was carried out to see if they had antimicrobial activity after heat treatment. As a Comparative Example, a commercially available nisin A (manufactured by Sigma-Aldrich) was used. Firstly, each peptide was dissolved in water to prepare a solution of a concentration ten times the lowest concentration specified in Table 3. The test solution thus prepared was subjected to heat treatment at 80°C for 30 minutes, or at 100°C for 30 minutes, or at 121°C for 15 minutes. […] Antimicrobial activity was evaluated based on the size of the spot (the size of the growth inhibition circle); when the size of the spot was equivalent to that of the control (when the diameter of the spot was 80% or more of the control), it was rated as A, and when the size was relatively small but activity was still detected, it was rated as B. When the spot was not observed, it was rated as C. It can be determined that the peptides rated as A or B are stable at the test temperatures. […]

nisin A (ITSISLCTPGCKTGALMGCNMKTATCHCSIHVSK; thioether (positions not given here); not fully specified (some residues, bridges); also: lantibiotic: thioether rings and dehydro residues not placed; UniProt P13068 24-57, looked up) [antimicrobial peptide produced by Lactococcus lactis]
pH Stability pH7 ([1]; 1x phosphate buffer saline (pH7.4), 27°C for 24 hours): C
pH Stability pH10 ([1]; ammonium chloride-ammonia buffer 50 mM pH10.0, 27°C for 24 hours): C
pH Stability pH4 ([1]; sodium phosphate buffer 50 mM pH4, 27°C for 24 hours): A
Antimicrobial activity, test bacteria Streptococcus uberis (Streptococcus uberis): +
Antimicrobial activity, test bacteria Staphylococcus aureus (Staphylococcus aureus): +
Antimicrobial activity, test bacteria Lactobacillus sakei (Lactobacillus sakei): +
Antimicrobial activity, test bacteria Escherichia coli (Escherichia coli): -
Antimicrobial activity, test bacteria Candida albicans (Candida albicans): -
Thermostability 80°C ([2]; 80°C for 30 minutes): C
Thermostability 100°C ([2]; 100°C for 30 minutes): C
Thermostability 121°C ([2]; 121°C for 15 minutes (autoclave)): C
